Legend:
[1] = target: the molecule itself; experiment: native gel or EMSA; native protein PAGE, 20% acrylamide homogeneous gel, PhastSystem, acidic buffer agarose strips, proteins migrating towards the negative electrode; equinatoxin II (19.82 kDa) as size reference
[2] = target: T1, Alba1 (Ape10b1);Alba2 (Ape10b2) (Aeropyrum pernix;Aeropyrum pernix, UniProt Q9YAW1;Q9YAX2 1-94;1-102, |); experiment: SPR; 6.0 uM equimolar complex; biphasic; ITC: 50 mM NaH2PO4, pH 7.0, 25 C; SPR: 50 mM NaH2PO4, 150 mM NaCl, 0.005% P20, pH 7.0, 25 C; UV melting: 50 mM NaH2PO4, pH 7.0; EMSA: 0.8% agarose, 1 h at room; conditions: protein: recombinant;recombinant; tags: His-tag (pQE-30UA); copies: 1;1; label: 5'-biotin on one strand (S1); blunt
T1 sequence 1: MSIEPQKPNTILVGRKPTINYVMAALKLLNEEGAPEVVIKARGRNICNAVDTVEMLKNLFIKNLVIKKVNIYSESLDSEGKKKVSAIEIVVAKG
T1 sequence 2: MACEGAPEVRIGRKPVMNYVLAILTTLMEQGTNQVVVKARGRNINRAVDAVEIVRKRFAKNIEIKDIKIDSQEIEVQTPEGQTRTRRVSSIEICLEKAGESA

Alba1 (Ape10b1) = target: T2, Alba1 (Ape10b1) (Aeropyrum pernix, UniProt Q9YAW1 1-94); experiment: SPR; 6.0 uM protein; saturable, fast association; ITC: 50 mM NaH2PO4, pH 7.0, 25 C; SPR: 50 mM NaH2PO4, 150 mM NaCl, 0.005% P20, pH 7.0, 25 C; UV melting: 50 mM NaH2PO4, pH 7.0; EMSA: 0.8% agarose, 1 h at room; conditions: protein: recombinant; tags: His-tag (pQE-30UA); chain copies: 2; label: 5'-biotin on one strand (S1); blunt
T2 sequence: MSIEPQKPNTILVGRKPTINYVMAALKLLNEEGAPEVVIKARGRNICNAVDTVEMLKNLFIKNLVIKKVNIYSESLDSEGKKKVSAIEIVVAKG

Alba2 (Ape10b2) = target: T3, Alba2 (Ape10b2) (Aeropyrum pernix, UniProt Q9YAX2 1-102); experiment: SPR; 6.0 uM protein; slower association and dissociation; ITC: 50 mM NaH2PO4, pH 7.0, 25 C; SPR: 50 mM NaH2PO4, 150 mM NaCl, 0.005% P20, pH 7.0, 25 C; UV melting: 50 mM NaH2PO4, pH 7.0; EMSA: 0.8% agarose, 1 h at room; conditions: protein: recombinant; tags: His-tag (pETDuet-1); chain copies: 2; label: 5'-biotin on one strand (S1); blunt
T3 sequence: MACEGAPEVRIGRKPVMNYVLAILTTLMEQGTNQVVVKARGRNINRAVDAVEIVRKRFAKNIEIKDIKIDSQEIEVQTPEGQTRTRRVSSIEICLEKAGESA

Binder | stoichiometry N [1] | binding result [2] | binding result (Alba1 (Ape10b1)) | binding result (Alba2 (Ape10b2))
Alba1 protein from Aeropyrum pernix (APE1832.1) (natural protein, UniProt Q9YAW1 1-94, looked up, Alba1 (Ape10b1), Aeropyrum pernix, locus APE1832.1; 94 amino-acid residues (10,336 Da); His-tag is removable by thrombin; also called Ape10b1; APA1) MSIEPQKPNTILVGRKPTINYVMAALKLLNEEGAPEVVIKARGRNICNAVDTVEMLKNLFIKNLVIKKVNIYSESLDSEGKKKVSAIEIVVAKG | 2 | – | – | –
SPRspecAP (dsDNA) DNA 1: CCCCCCCGTGAAAGCCTAGACAGCGAGGCCCCCCC DNA 2: GGGGGGGCCTCGCTGTCTAGGCTTTCACGGGGGGG | – | binds | binds | binds
Alba2 protein from Aeropyrum pernix (APE1823) (natural protein, Alba2 (Ape10b2), Aeropyrum pernix, locus APE1823; 102 amino-acid residues (11,380 Da); His-tag is removable by thrombin; Co-expression with untagged Alba1 may leave Alba1 in the Alba2 preparation (my surmise); also called Ape10b2; APA2) MACEGAPEVRIGRKPVMNYVLAILTTLMEQGTNQVVVKARGRNINRAVDAVEIVRKRFAKNIEIKDIKIDSQEIEVQTPEGQTRTRRVSSIEICLEKAGESA | 2 | – | – | –
